These results are taken from patent US20210247395A1.

This test has as its target NP binding epitope peptide of human Influenza B, residues 31-43 of Nucleoprotein (…) (Influenza B virus (strain B/Lee/1940)). Briefly: ELISA on overlapping peptides of NP (strain B/Lee/1940).

“GenWay mAb GWB-T00595, clone B265M (murine anti-Influenza B nucleoprotein monoclonal antibody)” displayed an OD492 nm of more than 0.4 OD492 nm. With “Acris mAb 3IF18-InB12, clone InB12 (murine anti-Influenza B nucleoprotein monoclonal antibody)” the figure was more than 0.4 OD492 nm.
